Data: patent US6372467
Substitutions are numbered along the chain they refer to. In names and notes the source's numbering stands.

B1: hemagglutinin (HA)-tagged p54^S6K (protein)
chain: MAAVFDLDLETEEGSEGEGEPELSPADACPLAELRAAGLEPVGHYEEVELTETSVNVGPERIGPHCFELLRVLGKGGYGKVFQVRKVQGTNLGKIYAMKVLRKAKIVRNAKDTAHTRAERNILESVKHPFIVELAYAFQTGGKLYLILECLSGGELFTHLEREGIFLEDTACFYLAEITLALGHLHSQGIIYRDLKPENIMLSSQGHIKLTDFGLCKESIHEGAVTHTFCGTIEYMAPEILVRSGHNRAVDWWSLGALMYDMLTGSPPFTAENRKKTMDKIIRGKLALPPYLTPDARDLVKKFLKRNPSQRIGGGPGDAADVQRHPFFRHMNWDDLLAWRVDPPFRPCLQSEEDVSQFDTRFTRQTPVDSPDDTALSESANQAFLGFTYVAPSVLDSIKEGFSFQPKLRSPRRLNSSPRVPVSPLKFSPFEGFRPSPSLPEPTELPLPPLLPPPPPSTTAPLPIRPPSGTKKSKRGRGRPGR
B2: HA-p54^S6K KR (protein)
chain: B1 chain with K99R

Experiments:
[1] = molecular target: Glutathione-S-transferase (GST)-tagged S6

Protein	in vitro kinase assay (phosphorylation of GST-S6 by anti-HA immunoprecipitates) [1]	in vitro kinase assay (screen of substrates) (histone H2B)
B1	p54^S6K kinase activity towards S6 was stimulated by serum treatment of the cells	p54^S6K can phosphorylate both S6 and histone H2B
B2	The KR mutation of p54^S6K abolished the kinase activity in an in vitro kinase assay	
